Paper PMC10786891, “Massively parallel profiling of RNA-targeting CRISPR-Cas13d”
Positions count from the first letter of the chain named. Names may count otherwise.

T1: EsCas13d, nuclease-dead (Eubacterium siraeum, UniProt B0MS50, R295A;H300A;R849A;H854A)
T1 sequence: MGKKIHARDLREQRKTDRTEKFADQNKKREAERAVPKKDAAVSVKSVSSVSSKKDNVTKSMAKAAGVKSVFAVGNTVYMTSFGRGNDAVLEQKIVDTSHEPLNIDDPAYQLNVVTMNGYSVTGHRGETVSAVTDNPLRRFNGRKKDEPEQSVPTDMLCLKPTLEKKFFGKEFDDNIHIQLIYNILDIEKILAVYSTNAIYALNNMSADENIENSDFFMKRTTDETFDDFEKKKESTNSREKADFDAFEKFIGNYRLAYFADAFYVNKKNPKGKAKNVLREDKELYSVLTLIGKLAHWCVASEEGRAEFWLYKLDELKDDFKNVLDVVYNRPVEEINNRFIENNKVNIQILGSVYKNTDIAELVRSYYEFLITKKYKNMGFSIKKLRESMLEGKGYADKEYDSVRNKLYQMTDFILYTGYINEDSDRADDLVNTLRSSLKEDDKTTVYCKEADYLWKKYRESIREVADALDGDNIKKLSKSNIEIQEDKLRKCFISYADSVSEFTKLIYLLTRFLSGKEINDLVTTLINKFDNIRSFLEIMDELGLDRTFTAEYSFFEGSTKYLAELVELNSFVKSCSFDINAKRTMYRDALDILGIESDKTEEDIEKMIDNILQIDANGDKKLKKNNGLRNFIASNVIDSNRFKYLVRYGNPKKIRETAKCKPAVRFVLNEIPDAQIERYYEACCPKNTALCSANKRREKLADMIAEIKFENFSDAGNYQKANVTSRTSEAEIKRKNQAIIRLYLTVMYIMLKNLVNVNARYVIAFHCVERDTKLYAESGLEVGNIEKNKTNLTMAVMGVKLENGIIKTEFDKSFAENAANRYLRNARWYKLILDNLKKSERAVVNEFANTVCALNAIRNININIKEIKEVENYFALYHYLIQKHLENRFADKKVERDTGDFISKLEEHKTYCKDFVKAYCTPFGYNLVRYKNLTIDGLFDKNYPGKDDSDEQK

B1: target 1 MT 5'PFS AAC 3'PFS ACA (mixed)
RNA 1: CACCCGUGCAAAAAUGCAGGGGUCUAAAACUGAGCGGAUAACCUCUCUAUGG
RNA 2: GGGAAUGGAUCCACAUCUACGAAUUCAACCCAUAGAGAGGUUAUCCGCUCAACAAGAUCGGAAGAGCACACGU
B2: target 1 MT 5'PFS GUC 3'PFS UCU (mixed)
RNA 1: B1 RNA 1
RNA 2: B1 RNA 2 with A27G, A28U, A52U, A54U
B3: target 1 G15A,C21U (mixed)
RNA 1: B1 RNA 1
RNA 2: B1 RNA 2 with A27G, A28U, C29A, C31U, G37A, A52C, A54G
B4: target 1 MT 5'PFS CAA 3'PFS AUA (mixed)
RNA 1: B1 RNA 1
RNA 2: B1 RNA 2 with A27C, C29A, C53U
B5: target 1 MT 5'PFS GCG 3'PFS CAC (mixed)
RNA 1: B1 RNA 1
RNA 2: B1 RNA 2 with A27G, A28C, C29G, A52C, C53A, A54C
B6: target 1 MT 5'PFS GAC 3'PFS UCA (mixed)
RNA 1: B1 RNA 1
RNA 2: B1 RNA 2 with A27G, A52U
B7: target 1 MT 5'PFS CCA 3'PFS CAC (mixed)
RNA 1: B1 RNA 1
RNA 2: B1 RNA 2 with A27C, A28C, C29A, A52C, C53A, A54C
B8: target 1 MT 5'PFS CCA 3'PFS CAU (mixed)
RNA 1: B1 RNA 1
RNA 2: B1 RNA 2 with A27C, A28C, C29A, A52C, C53A, A54U
B9: target 1 MT 5'PFS GCG 3'PFS CAU (mixed)
RNA 1: B1 RNA 1
RNA 2: B1 RNA 2 with A27G, A28C, C29G, A52C, C53A, A54U
B10: target 1 MT 5'PFS CUA 3'PFS AUG (mixed)
RNA 1: B1 RNA 1
RNA 2: B1 RNA 2 with A27C, A28U, C29A, C53U, A54G
B11: target 1 MT 5'PFS AAC 3'PFS ACC (mixed)
RNA 1: B1 RNA 1
RNA 2: B1 RNA 2 with A54C
B12: target 1 MT 5'PFS GAC 3'PFS AAA (mixed)
RNA 1: B1 RNA 1
RNA 2: B1 RNA 2 with A27G, C53A
B13: target 1 MT 5'PFS GCG 3'PFS CAA (mixed)
RNA 1: B1 RNA 1
RNA 2: B1 RNA 2 with A27G, A28C, C29G, A52C, C53A
B14: target 1 MT 5'PFS CCG 3'PFS UAG (mixed)
RNA 1: B1 RNA 1
RNA 2: B1 RNA 2 with A27C, A28C, C29G, A52U, C53A, A54G
B15: target 1 MT 5'PFS GUU 3'PFS CAC (mixed)
RNA 1: B1 RNA 1
RNA 2: B1 RNA 2 with A27G, A28U, C29U, A52C, C53A, A54C
B16: target 1 MT 5'PFS CCG 3'PFS UAU (mixed)
RNA 1: B1 RNA 1
RNA 2: B1 RNA 2 with A27C, A28C, C29G, A52U, C53A, A54U
B17: target 1 MT 5'PFS GGG 3'PFS CGC (mixed)
RNA 1: B1 RNA 1
RNA 2: B1 RNA 2 with A27G, A28G, C29G, A52C, C53G, A54C
B18: target 1 insA 3' of 4,insU 3' of 4 (mixed)
RNA 1: B1 RNA 1
RNA 2: GGGAAUGGAUCCACAUCUACGAAUUCGUACCAUAGAGAGGUUAUCCGCAUUCACCGAGAUCGGAAGAGCACACGU
B19: target 1 MT 5'PFS CCG 3'PFS UAC (mixed)
RNA 1: B1 RNA 1
RNA 2: B1 RNA 2 with A27C, A28C, C29G, A52U, C53A, A54C
B20: target 1 MT 5'PFS UAA 3'PFS ACA (mixed)
RNA 1: B1 RNA 1
RNA 2: B1 RNA 2 with A27U, C29A
B21: target 1 MT 5'PFS UAA 3'PFS ACU (mixed)
RNA 1: B1 RNA 1
RNA 2: B1 RNA 2 with A27U, C29A, A54U
B22: target 1 MT 5'PFS GUC 3'PFS UCC (mixed)
RNA 1: B1 RNA 1
RNA 2: B1 RNA 2 with A27G, A28U, A52U, A54C
B23: target 1 MT 5'PFS CCG 3'PFS UAA (mixed)
RNA 1: B1 RNA 1
RNA 2: B1 RNA 2 with A27C, A28C, C29G, A52U, C53A
B24: target 1 MT 5'PFS GUC 3'PFS AAA (mixed)
RNA 1: B1 RNA 1
RNA 2: B1 RNA 2 with A27G, A28U, C53A
B25: target 1 MT 5'PFS GAC 3'PFS UCC (mixed)
RNA 1: B1 RNA 1
RNA 2: B1 RNA 2 with A27G, A52U, A54C
B26: target 1 MT 5'PFS CUC 3'PFS UAA (mixed)
RNA 1: B1 RNA 1
RNA 2: B1 RNA 2 with A27C, A28U, A52U, C53A
B27: target 1 MT 5'PFS UUA 3'PFS AGU (mixed)
RNA 1: B1 RNA 1
RNA 2: B1 RNA 2 with A27U, A28U, C29A, C53G, A54U
B28: target 1 MT 5'PFS GUU 3'PFS CAA (mixed)
RNA 1: B1 RNA 1
RNA 2: B1 RNA 2 with A27G, A28U, C29U, A52C, C53A
B29: target 1 MT 5'PFS GUC 3'PFS UCA (mixed)
RNA 1: B1 RNA 1
RNA 2: B1 RNA 2 with A27G, A28U, A52U
B30: target 1 C2G,G17A (mixed)
RNA 1: B1 RNA 1
RNA 2: B1 RNA 2 with A27G, A28U, C29A, G35A, C50G, A52C, A54G
B31: target 1 MT 5'PFS GUC 3'PFS AAG (mixed)
RNA 1: B1 RNA 1
RNA 2: B1 RNA 2 with A27G, A28U, C53A, A54G
B32: target 1 MT 5'PFS GUC 3'PFS UCG (mixed)
RNA 1: B1 RNA 1
RNA 2: B1 RNA 2 with A27G, A28U, A52U, A54G
B33: target 1 MT 5'PFS UAA 3'PFS ACG (mixed)
RNA 1: B1 RNA 1
RNA 2: B1 RNA 2 with A27U, C29A, A54G
B34: target 1 MT 5'PFS CCA 3'PFS CAG (mixed)
RNA 1: B1 RNA 1
RNA 2: B1 RNA 2 with A27C, A28C, C29A, A52C, C53A, A54G
B35: target 1 MT 5'PFS GAC 3'PFS UCG (mixed)
RNA 1: B1 RNA 1
RNA 2: B1 RNA 2 with A27G, A52U, A54G
B36: target 1 MT 5'PFS GCG 3'PFS CAG (mixed)
RNA 1: B1 RNA 1
RNA 2: B1 RNA 2 with A27G, A28C, C29G, A52C, C53A, A54G
B37: target 1 MT 5'PFS GGG 3'PFS CGG (mixed)
RNA 1: B1 RNA 1
RNA 2: B1 RNA 2 with A27G, A28G, C29G, A52C, C53G, A54G
B38: target 1 del8,del22 (mixed)
RNA 1: B1 RNA 1
RNA 2: GGGAAUGGAUCCACAUCUACGAAUUCGUACAUAGAGAGGUUACCGCUCACCGAGAUCGGAAGAGCACACGU
B39: target 1 MT 5'PFS CAA 3'PFS AUC (mixed)
RNA 1: B1 RNA 1
RNA 2: B1 RNA 2 with A27C, C29A, C53U, A54C
B40: target 1 MT 5'PFS GAC 3'PFS UCU (mixed)
RNA 1: B1 RNA 1
RNA 2: B1 RNA 2 with A27G, A52U, A54U

Molecular target: T1, EsCas13d, nuclease-dead
Assay: crRNA (strand 1, pre-loaded); Mg2+; 40 mM Tris-HCl pH 7.5, 150 mM NaCl, 6 mM MgCl2, 1 mM DTT, 0.1% Tween-20, 0.2 mg/ml BSA; 25 C; 10 min per concentration, then washed
Settings: tags: His6-TwinStrep-SUMO cleaved; N-terminal SNAP kept (SNAP-Surface 488); label: 3' end held by stalled T7 RNA polymerase

Binder	Kd [µM]
B1	0.08 ± 0.0345
B2	0.0161 ± 0.00315
B3	0.0069 ± 0.0004
B4	0.0175 ± 0.0075
B5	~0.042
B6	0.0166 ± 0.0035
B7	~0.0095
B8	0.00655 ± 0.0028
B9	~0.029
B10	0.037 ± 0.01
B11	~0.043
B12	~0.051
B13	0.0495 ± 0.0245
B14	0.00335 ± 0.000595
B15	0.0225 ± 0.009
B16	0.0032 ± 0.001
B17	0.064 ± 0.03
B18	0.0124 ± 0.0016
B19	~0.00285
B20	0.0435 ± 0.0175

Binder	Kd [µM]
B21	0.029 ± 0.007
B22	0.0112 ± 0.0031
B23	0.0142 ± 0.0046
B24	0.038 ± 0.008
B25	0.023 ± 0.0093
B26	0.059 ± 0.025
B27	0.0745 ± 0.029
B28	0.0565 ± 0.0225
B29	0.0185 ± 0.0055
B30	0.025 ± 0.0019
B31	0.0205 ± 0.0055
B32	0.0144 ± 0.0027
B33	0.025 ± 0.0045
B34	0.00425 ± 0.0013
B35	0.0132 ± 0.0019
B36	~0.0565
B37	0.0375 ± 0.008
B38	0.0329 ± 0.0017
B39	~0.0325
B40	0.0128 ± 0.0048
